# Results reported in article PMC4968620 (Biochemistry, 2016).
# B1: HsRXRαΔNTD (130-462) (domain or fragment)
# chain: FTKHICAICGDRSSGKHYGVYSCEGCKGFFKRTVRKDLTYTCRDNKDCLIDKRQRNRCQYCRYQKCLAMGMKREAVQEERQRGKDRNENEVESTSSANEDMPVERILEAELAVEPKTETYVEANMGLNPSSPNDPVTNICQAADKQLFTLVEWAKRIPHFSELPLDDQVILLRAGWNELLIASFSHRSIAVKDGILLATGLHVHRNSAHSAGVGAIFDRVLTELVSKMRDMQMDKTELGCLRAIVLFNPDSKGLSNPAEVEALREKVYASLEAYCKHKYPEQPGRFAKLLLRLPALRSIGLKCLEHLFFFKLIGDTPIDTFLMEMLEAPHQMT
# Molecular target: the molecule itself
# Assay: SAXS
protein,measurement,value
B1,stoichiometry N,2
